The source of these data is patent US20060024313A1, “Agents that disrupt dimer formation in DPP-IV family of prolyl dipeptidases” (priority 2004, published 2006).

One data set relates to DPP-IV. Description: Kinetic constant measurements with chromogenic substrate H-Gly-Pro-pNA. The format is biochemical, human. To be noted: Table III. Here is the method:
To measure the kinetic parameters, the chromogenic substrate H-Gly-Pro-pNA was utilized to initiate the reaction, which was monitored at OD 405 nm as a function of time (21). […] The initial rate was measured with less than 10% substrate depletion for the first 10 to 300 seconds. The steady-state parameters, kcat and Km, were determined from initial velocity measurements at 0.5 to 5 Km of the substrate concentrations. Lineweaver-Burk plots were analyzed using non-linear regression of the Michaelis-Menten equation. Correlation coefficients better than 0.99 were obtained throughout.

Data set [1] in a line: Analytical ultracentrifugation (AUC): sedimentation velocity and equilibrium. The format is physicochemical. Particulars: PBS buffer where stated. The method, then:
Buffer was changed using an Amicon device and DPP-IV proteins were allowed to equilibrate for at least four hours or longer as indicated in the text at 25° C. after buffer changes. The sedimentation coefficients (S) of the enzyme were estimated by a Beckman-Coulter XL-A analytical ultracentrifuge with an An60Ti rotor as described (25). Sedimentation velocity analysis was performed at 40,000 rpm at 25° C. with standard double sector aluminum centerpieces. The UV absorption of the cells was scanned every 5 min for 4 hours. Sedimentation equilibrium was performed at 20° C. with six-channel open centerpieces and then centrifuged at 12,000 rpm for 12 hours. The data from both sedimentation velocity and sedimentation experiments were analyzed with the SedFit version 8.7 program to obtain molecular weights and sedimentation coefficients (25). Sednterp version 1.07 program is used to obtain solvent density, viscosity, Stokes' radius (Rs) and anhydrous frictional ratio (f/fo).

B1: 724A: DPP-IV C-terminal loop mutant, V724 substituted with Alanine (protein)
chain: SRKTYTLTDYLKNTYRLKLYSLRWISDHEYLYKQENNILVFNAEYGNSSVFLENSTFDEFGHSINDYSISPDGQFILLEYNYVKQWRHSYTASYDIYDLNKRQLITEERIPNNTQWVTWSPVGHKLAYVWNNDIYVKIEPNLPSYRITWTGKEDIIYNGITDWVYEEEVFSAYSALWWSPNGTFLAYAQFNDTEVPLIEYSFYSDESLQYPKTVRVPYPKAGAVNPTVKFFVVNTDSLSSVTNATSIQITAPASMLIGDHYLCDVTWATQERISLQWLRRIQNYSVMDICDYDESSGRWNCLVARQHIEMSTTGWVGRFRPSEPHFTLDGNSFYKIISNEEGYRHICYFQIDKKDCTFITKGTWEVIGIEALTSDYLYYISNEYKGMPGGRNLYKIQLSDYTKVTCLSCELNPERCQYYSVSFSKEAKYYQLRCSGPGLPLYTLHSSVNDKGLRVLEDNSALDKMLQNVQMPSKKLDFIILNETKFWYQMILPPHFDKSKKYPLLLDVYAGPCSQKADTVFRLNWATYLASTENIIVASFDGRGSGYQGDKIMHAINRRLGTFEVEDQIEAARQFSKMGFVDNKRIAIWGWSYGGYVTSMVLGSGSGVFKCGIAVAPVSRWEYYDSVYTERYMGLPTPEDNLDHYRNSTVMSRAENFKQVEYLLIHGTADDNVHFQQSAQISKALADVGVDFQAMWYTDEDHGIASSTAHQHIYTHMSHFIKQCFSLP
Take B1: the Km (as a rule, the concentration of substrate that gives half-maximal velocity) was 87.5 µM in the data set on DPP-IV (dimer form of the mutant) and 76.4 µM with DPP-IV (monomer form of the mutant). For the same molecule, the kcat with DPP-IV (dimer form of the mutant) was 48.3 s − 1; in the data set on DPP-IV (monomer form of the mutant), 0.5 s − 1. In data set [1], the “quaternary structure (monomer/dimer) by AUC” value is “mixture with both monomers and dimers”.

B2: 730A: DPP-IV C-terminal loop mutant, F730 substituted with Alanine (protein)
chain: SRKTYTLTDYLKNTYRLKLYSLRWISDHEYLYKQENNILVFNAEYGNSSVFLENSTFDEFGHSINDYSISPDGQFILLEYNYVKQWRHSYTASYDIYDLNKRQLITEERIPNNTQWVTWSPVGHKLAYVWNNDIYVKIEPNLPSYRITWTGKEDIIYNGITDWVYEEEVFSAYSALWWSPNGTFLAYAQFNDTEVPLIEYSFYSDESLQYPKTVRVPYPKAGAVNPTVKFFVVNTDSLSSVTNATSIQITAPASMLIGDHYLCDVTWATQERISLQWLRRIQNYSVMDICDYDESSGRWNCLVARQHIEMSTTGWVGRFRPSEPHFTLDGNSFYKIISNEEGYRHICYFQIDKKDCTFITKGTWEVIGIEALTSDYLYYISNEYKGMPGGRNLYKIQLSDYTKVTCLSCELNPERCQYYSVSFSKEAKYYQLRCSGPGLPLYTLHSSVNDKGLRVLEDNSALDKMLQNVQMPSKKLDFIILNETKFWYQMILPPHFDKSKKYPLLLDVYAGPCSQKADTVFRLNWATYLASTENIIVASFDGRGSGYQGDKIMHAINRRLGTFEVEDQIEAARQFSKMGFVDNKRIAIWGWSYGGYVTSMVLGSGSGVFKCGIAVAPVSRWEYYDSVYTERYMGLPTPEDNLDHYRNSTVMSRAENFKQVEYLLIHGTADDNVHFQQSAQISKALVDVGVDAQAMWYTDEDHGIASSTAHQHIYTHMSHFIKQCFSLP
As to B2, the Km in the data set on DPP-IV (dimer form of the mutant) amounted to 56.3 µM; in the data set with DPP-IV (monomer form of the mutant) it was 53.7 µM. The kcat is listed as 27.9 s − 1 in the data set on DPP-IV (dimer form of the mutant) and 0.2 s − 1 in the data set on DPP-IV (monomer form of the mutant). Moreover, the “quaternary structure (monomer/dimer) by AUC” value in data set [1] was “mixture with both monomers and dimers”.
